Source: patent publication US20240352434, “COMPOSITIONS COMPRISING A VARIANT CAS12I3 POLYPEPTIDE AND USES THEREOF” (Arbor Biotechnologies, Inc., published 2024)
Positions count from the first letter of the chain named.

T1: Cas12i3 N711R (Unidentified, N711R)
T1 chain: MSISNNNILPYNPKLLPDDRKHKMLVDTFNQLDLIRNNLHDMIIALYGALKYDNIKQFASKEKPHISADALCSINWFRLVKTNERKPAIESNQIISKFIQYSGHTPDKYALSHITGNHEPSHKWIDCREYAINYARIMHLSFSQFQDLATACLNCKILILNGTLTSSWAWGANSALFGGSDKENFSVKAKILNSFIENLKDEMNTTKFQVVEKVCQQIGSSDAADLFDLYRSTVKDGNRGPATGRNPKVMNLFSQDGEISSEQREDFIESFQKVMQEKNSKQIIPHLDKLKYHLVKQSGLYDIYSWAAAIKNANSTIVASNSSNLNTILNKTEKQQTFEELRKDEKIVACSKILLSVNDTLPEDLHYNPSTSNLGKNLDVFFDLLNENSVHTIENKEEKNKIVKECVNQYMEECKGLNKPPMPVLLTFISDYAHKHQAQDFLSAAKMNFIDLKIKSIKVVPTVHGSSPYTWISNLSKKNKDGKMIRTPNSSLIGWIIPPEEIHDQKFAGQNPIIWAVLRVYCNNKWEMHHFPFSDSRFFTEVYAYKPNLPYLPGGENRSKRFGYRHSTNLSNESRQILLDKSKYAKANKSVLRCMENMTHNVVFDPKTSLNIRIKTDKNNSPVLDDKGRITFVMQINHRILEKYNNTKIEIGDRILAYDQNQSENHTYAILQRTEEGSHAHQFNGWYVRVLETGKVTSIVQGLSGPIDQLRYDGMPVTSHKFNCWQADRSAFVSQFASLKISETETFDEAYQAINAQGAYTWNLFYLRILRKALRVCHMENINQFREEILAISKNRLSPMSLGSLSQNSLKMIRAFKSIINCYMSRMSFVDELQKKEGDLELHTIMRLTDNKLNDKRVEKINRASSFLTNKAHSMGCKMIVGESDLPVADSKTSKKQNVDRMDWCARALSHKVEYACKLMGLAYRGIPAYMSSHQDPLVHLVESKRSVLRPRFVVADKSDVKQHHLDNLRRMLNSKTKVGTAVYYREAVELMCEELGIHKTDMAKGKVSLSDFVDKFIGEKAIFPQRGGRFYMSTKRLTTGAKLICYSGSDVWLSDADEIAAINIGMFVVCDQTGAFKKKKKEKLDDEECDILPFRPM

T2: Cas12i3 S536R (Unidentified, S536R)
T2 chain: T1 chain with S536R, R711N

B1: EMX1_T5 crRNA ; EMX1_T5 target (ssRNA ; dsDNA)
RNA: AUAGUGUGUCCUUAGUUGACAUUAUUAUUCCCAUAGGGAAGG
DNA 1: TATTATTCCCATAGGGAAGG
DNA 2: CCTTCCCTATGGGAATAATA
B2: VEGFA_T2 crRNA ; VEGFA_T2 target (ssRNA ; dsDNA)
RNA: AUAGUGUGUCCUUAGUUGACAUAAUCCUCCACCAGUCAUGGU
DNA 1: AATCCTCCACCAGTCATGGT
DNA 2: ACCATGACTGGTGGAGGATT
B3: AAVS1_T3 crRNA ; AAVS1_T3 target (ssRNA ; dsDNA)
RNA: AUAGUGUGUCCUUAGUUGACAUGUGAGAAUGGUGCGUCCUAG
DNA 1: GTGAGAATGGTGCGTCCTAG
DNA 2: CTAGGACGCACCATTCTCAC

Target: T1, Cas12i3 N711R
Assay: cell_activity; fold change in % indels, HEK293T; PAM not stated in example
Summary of the method: (§1)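 HEK293T cells lipofected with Lipofectamine 2000 (crRNA omitted in negative controls). Harvested 72 h post-transfection and lysed in QuickExtract. Target loci amplified by two-round PCR and sequenced on NextSeq (150 cycles) to quantify % indels.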

| Binder | binding signal |
| --- | --- |
| B1 | 1.56 fold of wild-type |
| B2 | 2.17 fold of wild-type |
| B3 | 2.79 fold of wild-type |

Target: T2, Cas12i3 S536R
Assay: as above
Summary of the method: as §1

| Binder | binding signal |
| --- | --- |
| B1 | 1.27 fold of wild-type |
| B2 | 1.8 fold of wild-type |
| B3 | 2.16 fold of wild-type |
